Data as given in doi:10.1101/2021.12.30.474394.
Blank lines part the entries; values can stand above or below the binder they belong to.

How the values were obtained:
mutant CycT14MUT = mutant CycT14MUT (UniProt O60563); test: co-IP
mutant CycT14MUT(280) = mutant CycT14MUT(280) (UniProt O60563); test: co-IP

- fold change of co-IP against WT CycT1 (mutant CycT14MUT): 5.7 fold
- fold change of co-IP against WT CycT1(280) (mutant CycT14MUT(280)): 5.1 fold
B1: DN Siah1C75S (enzyme)
chain: MSRQTATALPTGTSKCPPSQRVPALTGTTASNNDLASLFECPVCFDYVLPPILQCQSGHLVCSNCRPKLTCCPTSRGPLGSIRNLAMEKVANSVLFPCKYASSGCEITLPHTEKADHEELCEFRPYSCPCPGASCKWQGSLDAVMPHLMHQHKSITTLQGEDIVFLATDINLPGAVDWVMMQSCFGFHFMLVLEKQEKYDGHQQFFAIVQLIGTRKQAENFAYRLELNGHRRRLTWEATPRSIHEGIATAIMNSDCLVFDTSIAQLFAENGNLGINVTISMC

- fold change of co-IP against WT CycT1 (mutant CycT14MUT): 8.3 fold
- fold change of co-IP against WT CycT1(280) (mutant CycT14MUT(280)): 8.9 fold
B2: WT Siah2 (enzyme)
chain: MSRPSSTGPSANKPCSKQPPPQPQHTPSPAAPPAAATISAAGPGSSAVPAAAAVISGPGGGGGAGPVSPQHHELTSLFECPVCFDYVLPPILQCQAGHLVCNQCRQKLSCCPTCRGALTPSIRNLAMEKVASAVLFPCKYATTGCSLTLHHTEKPEHEDICEYRPYSCPCPGASCKWQGSLEAVMSHLMHAHKSITTLQGEDIVFLATDINLPGAVDWVMMQSCFGHHFMLVLEKQEKYEGHQQFFAIVLLIGTRKQAENFAYRLELNGNRRRLTWEATPRSIHDGVAAAIMNSDCLVFDTAIAHLFADNGNLGINVTISTCCP
